Assay results taken from patent US12018066 (TRIAD NATIONAL SECURITY, dated 2024).
Like-named read-outs stand apart in the source and are kept apart here.

B1: E08 scFv (scFv)
scFv: SYVLTQPPSVSVAPGKTARITCGGNNIGWKSVHWYQQKPGQAPVLVVYDDSDRPSGIPERFSGSNSGNTATLTISRVEAGDEADYYCQVWDSSSDLVVFGGGTKLTVLSGGSTITSYNVYYTKLSSSGTQVQLVQSGAEVKKPGSSVKVSCKASGGTFSSYAISWVRQAPGQGLEWMGGIIPIFGTANYAQKFQGRVTITADESTSTAYMELSSLRSEDTAVYYCARASGRWLQFWHYYGMDVWGQGTTVTVSS
B2: E08 minibody (scFv-Fc) (Fc fusion)
chain: B1 scFv
B3: R26 minibody (scFv-Fc) (Fc fusion)
chain: SYELTQPPSVSVAPGQTATITCGGKNIESKSVHWYQQKPGQAPVLVVSDDTDRASGIPERFSGSNSGGAATLTISRVEAGDEADYYCQVWDSPSDHYVFGPGTKLTVLSGGSTITSYNVYYTKLSSSGTQVQLVESGGGVVQPGRSLRLSCAASGFTFSSYAMHWVRQAPGKGLEWVAVISYDGSNKYYADSVKGRFTISRDKAKNTLYLQMNSLRGEDTAVYYCARELSYYDSSGYLRGDWYFDLWGRGTLVTVSS

Columns and labels:
[1] = target: T1, SARS-CoV-2 spike protein receptor binding domain (RBD2) (SARS-CoV-2, UniProt P0DTC2 319-537); assay: flow cytometry, yeast-displayed scFv, titration of biotinylated antigen
[2] = target: SARS-CoV spike protein receptor binding domain (RBD1) (SARS-CoV, UniProt P59594 306-527); assay: flow cytometry (yeast scFv) / minibody ELISA, FIGS. 7A-C
[3] = target: T1, SARS-CoV-2 spike protein receptor …
[4] = target: T1, SARS-CoV-2 spike protein receptor …; assay: flow cytometry, yeast-displayed scFv
[5] = target: T1, SARS-CoV-2 spike protein receptor …; assay: SPR
[6] = target: T1, SARS-CoV-2 spike protein receptor …; assay: SPR, minibodies
[7] = target: T1, SARS-CoV-2 spike protein receptor …; assay: SPR, immobilized antibody, RBD injected, 1:1 fit

Row | Binder | Kd [1] [nM] | binding result [2] | Kd [3] [nM] | Kd [4] [nM] | Kd [5] [nM] | Kd [6] [nM] | Kd [7] [nM]
1 | B1 | 13.9 | binds | 13.9 | 13.9 | – | – | –
2 | B2 | – | – | – | – | 3.6 | 4 | 3.6
3 | B3 | – | – | – | – | – | 900 | 888
